Key:
Assay in all cases: ELISA, coated antigen, detection HRP anti-human IgG
[1] = molecular target: T1, Biotinylated Human IL-10 Protein (human, UniProt P22301 19-178, biotinylated)
T1 construct: also called IL10-Bio

[2] = molecular target: T2, Biotinylated Recombinant human BAFFR Protein (human, UniProt Q96RJ3 7-71, limits assumed, biotinylated)
T2 construct: The label says that it carries a his tag; also called BAFFR-his-Bio
T2 sequence (looked up): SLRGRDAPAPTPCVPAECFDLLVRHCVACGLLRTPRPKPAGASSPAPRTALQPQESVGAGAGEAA

[3] = molecular target: T3, Streptavidin (UniProt P22629 37-163, limits assumed)
T3 construct: also called SA
T3 sequence (P22629 37-163 limits assumed): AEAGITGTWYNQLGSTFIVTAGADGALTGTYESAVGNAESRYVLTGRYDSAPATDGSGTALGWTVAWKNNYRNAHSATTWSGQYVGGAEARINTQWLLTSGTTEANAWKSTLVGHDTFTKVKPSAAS

Measured: binding result

T1 sequence (P22301 19-178 limits assumed): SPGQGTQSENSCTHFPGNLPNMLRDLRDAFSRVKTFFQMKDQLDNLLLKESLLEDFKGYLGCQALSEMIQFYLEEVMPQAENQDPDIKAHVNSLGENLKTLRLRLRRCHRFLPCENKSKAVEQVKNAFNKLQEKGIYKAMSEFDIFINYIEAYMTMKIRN

B1: Positive Benchmark1 Ab (GC5B596) (antibody)
scFv: GSQVQLVQSGAEVKKPGASVKVSCKASGYSFTGYTMNWVRQAPGQGLEWMGLINPYNSDTNYAQKLQGRVTMTTDTSTSTAYMELRSLRSDDTAVYYCARVALRVALDYWGQGTLVTVSSGGGGSGGGGSGGGGSDIQMTQSPSSLSASVGDRVTITCKASQNVATHVGWYQQKPGKAPKRLIYSASYRYSGVPSRFSGSGSGTEFTLTISNLQPEDFATYYCQQYNRYPYTFGQGTKLEIKSR
notes: […] variable region from GC5B596 of CN 109715667 A. As positive control antibody it was detected with anti-human IgG, so it carried a human constant part; also called control antibody benchmark 1
no binding: all assays above

Source: patent US20250049852A1 (SHANGHAI IASO BIOTECHNOLOGY, published 2025)
